Data on 140 substances can be found in the supplement of paper PMC12042874.

± gives the uncertainty stated by the source.

This data set can be described thus: amyloid nucleation score (Sup35N fusion, yeast selection) (log enrichment); library NNK2; higher = more nucleation; inactive = no reads after selection. In a few lines: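 Yeast lacking psi expressed peptides of 20 random codons fused to Sup35N, received 100 μM copper sulfate for 24 hours, and were then grown for 7 days at 30°C on medium lacking adenine and uracil. Illumina sequencing of input and output plasmid inserts provided the reads. Nucleation scores are DiMSum log enrichments of output over input, centred on the mode of non-aggregating sequences. Any sequence with under 100 input reads was excluded.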
With SFRFMFEVLSVVTYSTRGCA, the amyloid nucleation score came to 2.92 ± 0.067.

Substance IYQPCCCV yielded an amyloid nucleation score of 0.76 ± 0.51.

Take SISSGFFWKEAIKGSAVSLW: the amyloid nucleation score worked out at 0.36 ± 0.8.

LIGIARSRVYRVKECFVHGL: the amyloid nucleation score was found to be 0.519 ± 0.43.

As for CDMFLSYLRT, the amyloid nucleation score was 1.74 ± 0.23.

In the case of TLRIWYCWHDSAYTSSDHII, the amyloid nucleation score was determined as 1.45 ± 0.2.

The substance CCVAGLFEWHWY yielded an amyloid nucleation score of 8.409 ± 0.081.

Substance KLCKVYVRRRSIICWGNCVP registered an amyloid nucleation score of -0.481 ± 1.1.

The substance FLYLALCKI registered an amyloid nucleation score of 2.49 ± 0.14.

Consider SLMKKTAGLFNVYVPSIGSS, for which the amyloid nucleation score stood at 0.378 ± 0.37.

In turn, LFFFSGRWKVNGGIVDGCGV returned an amyloid nucleation score of 0.166 ± 0.45.

As for NWSFASKVGLQMSKHAVTV, the amyloid nucleation score was 0.13 ± 0.42.

KERLAFCMYGLGVDYVTFGN displayed an amyloid nucleation score of 0.497 ± 0.57.

In turn, TFVKGKMFNLTRVWVLPYWT showed an amyloid nucleation score of 0.318 ± 0.46.

In the case of MDLYCD, the amyloid nucleation score entry was “inactive”.

Substance RFMHGTTCHTKYHRHLSTET registered an amyloid nucleation score of 0.766 ± 0.23.

Take WDQCLMLMCPNE: the amyloid nucleation score is -0.291 ± 0.64.

LKCVHCYIRHLNFYFILPLC: the amyloid nucleation score entry is “inactive”.

Consider CNLESMQSHFMVLCTFDG, for which the amyloid nucleation score is -0.044 ± 0.63.

In turn, SQFAVRKEGTDSEEFLKSVV yielded an amyloid nucleation score of -0.197 ± 0.48.

KDGLTISRIQITLIKRTLVV came in with an amyloid nucleation score of 0.035 ± 0.74.

As for KRINCPKFSNGQYGLS, the amyloid nucleation score result is “inactive”.

Consider DILGFCLSCMLRVGLFTWGR, for which the amyloid nucleation score result was “inactive”.

Consider TLSVGVQL, for which the amyloid nucleation score was -0.624 ± 0.63.

As to NGTLRAFVIKKVRIIDSRQV, the amyloid nucleation score is 4.09 ± 0.076.

NKSLFMKFCVSLFRLGSYVT: the amyloid nucleation score was -0.618 ± 0.48.

The substance FDLNAREHYRASRGDTGTGH gave an amyloid nucleation score of 1.16 ± 0.68.

With IVKPSRKLKTQGCMKFNAWL, the amyloid nucleation score is -0.284 ± 0.61.

Substance DRLAILSNFGVVMIPTLRLY yielded an amyloid nucleation score of -0.09 ± 0.4.

With SMSKYAISYKLVVRKKYRSG, the amyloid nucleation score was determined as 1.83 ± 0.11.

Substance KVVCLMVISCCLPLAPHRGW yielded an amyloid nucleation score of 3.53 ± 0.11.

The substance RNHRRSWMPSFRTKLNGGWF yielded an amyloid nucleation score of 3.58 ± 0.14.

The substance SVIHREIELVFILI returned an amyloid nucleation score of 4.4 ± 0.087.

Regarding DYTNSTAEGFTF, the amyloid nucleation score entry is “inactive”.

With GTRSGSSDV, the amyloid nucleation score is 0.31 ± 0.5.

Consider GVCFSFVFM, for which the amyloid nucleation score was 8.487 ± 0.064.

As for HNVGILWSSCCSRMYIAYAY, the amyloid nucleation score was -0.288 ± 1.

For LKMSHIYCSIIITAYLNWLV, the amyloid nucleation score entry is “inactive”.

CYCEEMSMNTFKTCINTGAM registered an amyloid nucleation score of 1.04 ± 0.42.

Substance AESVCYQMTCIPCLLIFNTV showed an amyloid nucleation score of 8.966 ± 0.054.

LGTSRGNDVENRAYSRWVKV showed an amyloid nucleation score of 0.524 ± 0.81.

CRGVNVHDSSW displayed an amyloid nucleation score of -0.321 ± 0.22.

Consider TGTPYRF, for which the amyloid nucleation score worked out at 1.11 ± 0.23.

As to LISKSGSFMNMLGTGDRAR, the amyloid nucleation score stood at 0.005 ± 1.

In turn, AMDASR had an amyloid nucleation score of 1.7 ± 0.12.

On to KKSFGLLENIMVSDLFPNSS, for which the amyloid nucleation score entry was “inactive”.

Substance SESVL displayed an amyloid nucleation score of -1 ± 0.76.

For the substance RGREL, the amyloid nucleation score is -1.66 ± 0.54.

In turn, LAFFGVLSSFYSRFGIKTKM returned an amyloid nucleation score of -1.83 ± 0.54.

Consider KHEIQVS, for which the amyloid nucleation score is 0.33 ± 0.56.

On to VWLSFRVYLVMTSVLVILNC, for which the amyloid nucleation score came to 1.13 ± 0.11.

WVFRK: the amyloid nucleation score is -0.11 ± 0.76.

DAFGRIGPNEKLYDGEDECW came in with an amyloid nucleation score of 0.902 ± 0.22.

As to YMCQRTETMSVSTWGKILCV, the amyloid nucleation score entry is “inactive”.

Consider QHLFFIYSCYTKLGGTLAGE, for which the amyloid nucleation score was determined as 0.746 ± 0.2.

Take VYDQIYGRLANRLVHNKWRR: the amyloid nucleation score was -0.341 ± 0.55.

Substance YTVPSQNKWVENLMNWRGYR gave an amyloid nucleation score of -0.663 ± 0.23.

In the case of RHFYRSKMAMVYGFHTAFTG, the amyloid nucleation score is -0.582 ± 0.34.

LMLRGLEEARAPRCESWPSW yielded an amyloid nucleation score of 1.21 ± 0.34.

ITYPVESLYNAWSGGPVTDG yielded an amyloid nucleation score of 0.164 ± 0.8.

As to LHCRSCGF, the amyloid nucleation score is -0.193 ± 0.43.

The substance MAKSCGRSCTCSRSKVSVGG displayed an amyloid nucleation score of 0.52 ± 0.57.

In turn, SHYTMALSRDIGYGDITKSD yielded an amyloid nucleation score of -0.675 ± 1.1.

The substance IAAMTFFMMCLTYCVLWIAW gave an amyloid nucleation score of 1.71 ± 0.31.

AFSVFSWSFQWQTSCWQICE: the amyloid nucleation score came out at 5.022 ± 0.038.

NMMGMAYSV yielded an amyloid nucleation score of 0.063 ± 1.1.

Turning to HHFNCCTGNFYIYKLDDSLI, the amyloid nucleation score was found to be 5.485 ± 0.048.

With RSERPFAWVMALTFTCAGGL, the amyloid nucleation score was 3.47 ± 0.11.

On to DVDEVW, for which the amyloid nucleation score was -1.09 ± 0.61.

As to NMGSYD, the amyloid nucleation score result was “inactive”.

As for DLSCGGRLKMNHYKA, the amyloid nucleation score is -0.686 ± 0.76.

Consider WKTWSPKYWGSFVR, for which the amyloid nucleation score was -0.283 ± 0.46.

In the case of GFPVWNVYLKSNGHVCDGLG, the amyloid nucleation score was found to be 1.31 ± 0.15.

LIRFYEIFSW gave an amyloid nucleation score of -0.237 ± 1.

For CLAISWEGWSNSFGRYVVGW, the amyloid nucleation score is 1.86 ± 0.1.

The substance RTWAFFKAVWGIVDRTTLSN had an amyloid nucleation score of -1.13 ± 0.62.

PVGFDHNF registered an amyloid nucleation score of -0.451 ± 0.56.

As to SKFYNSYSYFTLFVVVLMFD, the amyloid nucleation score was -0.936 ± 1.1.

As for FLINFAMIISIFRLSYHRPV, the amyloid nucleation score is -0.599 ± 0.55.

Take GTSMCRELNVHNAWRGIHMG: the amyloid nucleation score was found to be 0.615 ± 0.29.

In the case of MHQSQVMSLSDPAAGKSFWV, the amyloid nucleation score is -0.56 ± 0.79.

Consider LSLKVKYFQKDTRVGNGEHK, for which the amyloid nucleation score was 2.15 ± 0.076.

As for RIVGRSFYMQFGRVWDFLRS, the amyloid nucleation score was -0.546 ± 0.61.

Substance VTVRRCSFFQVY registered an amyloid nucleation score of -0.196 ± 0.41.

In the case of GYAVRRYDLMNLFRSMWASC, the amyloid nucleation score is -0.739 ± 0.79.

With HWKVENRLNSMEWKSMGGQN, the amyloid nucleation score came out at 3.97 ± 0.053.

In turn, WASFTSACRRLLSPCTPRSG came in with an amyloid nucleation score of 5.22 ± 0.1.

LVSNSSLSYPLDSYGSSRSD came in with an amyloid nucleation score of -0.113 ± 0.49.

As for SYFKSTSARCFSFYLCCAKT, the amyloid nucleation score was 6.224 ± 0.05.

Take NITSSNRGVSFEETGVNAGI: the amyloid nucleation score result was “inactive”.

On to LYINGEISVVIRIWFGPLVV, for which the amyloid nucleation score came out at 0.517 ± 0.53.

Turning to GNLSNSQTIWFRSNTAISLN, the amyloid nucleation score turned out to be 1.98 ± 0.14.

As for LNYMLSAPYFPYESEWSSKG, the amyloid nucleation score is -0.59 ± 1.1.

In turn, GSYMS displayed an amyloid nucleation score of 3.54 ± 0.065.

In the case of SSMLPYSRHTIRVTKVRPPF, the amyloid nucleation score worked out at 0.561 ± 0.62.

NVYIKRIWVPFSP: the amyloid nucleation score was -0.173 ± 0.36.

LYFWPLTFRSGHCCGLSQVK returned an amyloid nucleation score of 1.16 ± 0.61.

For the substance PEGPERFVFATWPRMHMPSY, the amyloid nucleation score entry was “inactive”.

For TRIVS, the amyloid nucleation score was -0.415 ± 0.25.

In turn, SRVIWHDSQLFVVFSSTAYK returned an amyloid nucleation score of 4.04 ± 0.041.

Turning to PRVNILWYNRMLYAWFRPVV, the amyloid nucleation score was -1.21 ± 0.55.

Regarding DLSNSIVLLGFDNSQWLRDA, the amyloid nucleation score was 1.78 ± 0.095.

Consider WAPFMGVSKSTQTARTGMVM, for which the amyloid nucleation score was -0.146 ± 0.61.

The substance FGNGDKSGMIGINVNLLCRM registered an amyloid nucleation score of 5.73 ± 0.034.

As for NISDTSMISNGYCIN, the amyloid nucleation score was determined as 0.154 ± 0.63.

For the substance VINVKEYVGYIVSKVDKGGP, the amyloid nucleation score was found to be 4.24 ± 0.049.

IIVGATKMLCCFHVMMVYAP displayed an amyloid nucleation score of 0.472 ± 0.8.

ELCPAT gave an amyloid nucleation score of 0.219 ± 0.3.

In turn, VGIEEVIH came in with an amyloid nucleation score of -0.249 ± 0.23.

In turn, KRWIT yielded an amyloid nucleation score of -0.65 ± 0.55.

KGLASKAHSIGLCT had an amyloid nucleation score of 1.01 ± 0.25.

Regarding QGRLSPY, the amyloid nucleation score entry was “inactive”.

Regarding DITLFYSDTSCRFSVPCSVD, the amyloid nucleation score came to 0.598 ± 0.46.

SCHWNVTRGRWNTKHNLRPK came in with an amyloid nucleation score of 1.06 ± 0.4.

For the substance FFLNVFDIMRILLYN, the amyloid nucleation score entry is “inactive”.

The substance VGCCVQGNLYSSFLAMFVA had an amyloid nucleation score of 7.352 ± 0.028.

Substance FYMYAFNYYSFY yielded an amyloid nucleation score of 2.91 ± 0.086.

Substance LGCMNDNMSNYYCGHR returned an amyloid nucleation score of -1.31 ± 0.55.

Substance YGIHTFSRYGVIWSCVSV returned an amyloid nucleation score of -0.64 ± 0.49.

The substance MFWRITGAI yielded an amyloid nucleation score of 0.402 ± 0.34.

With LNIFI, the amyloid nucleation score was determined as 2.96 ± 0.062.

For CVICDNYFILEAVF, the amyloid nucleation score is -0.771 ± 1.1.

WDVIELF gave an amyloid nucleation score of -1.4 ± 1.1.

VTRVWYRTSDCDAYSHGNFL had an amyloid nucleation score of 0.991 ± 0.27.

Take MTRNGDLFS: the amyloid nucleation score is 0.657 ± 0.4.

With SSIKSSKIGAGGSL, the amyloid nucleation score is -0.213 ± 0.79.

YFLSGRVSEGSAITIRELSP: the amyloid nucleation score was 2.34 ± 0.091.

IFYSSLALVWLYNLMDRECT had an amyloid nucleation score of 2.18 ± 0.17.

SGGHNIVLMI: the amyloid nucleation score result is “inactive”.

As to KQEHSYYNLDDLGHRGSEGA, the amyloid nucleation score is -0.536 ± 1.1.

As to ADEVLYYGCVSSCLMFGVLI, the amyloid nucleation score was -0.069 ± 0.35.

THMYCIMVYRRYSGSVGLGY: the amyloid nucleation score turned out to be 0.127 ± 0.77.

Substance SFITDRADCRQWLLRNNIFA showed an amyloid nucleation score of -0.771 ± 0.64.

LDMITTINS displayed an amyloid nucleation score of -1.6 ± 0.54.

Regarding CCFVVISYDRNSQLH, the amyloid nucleation score worked out at 9.791 ± 0.043.

Substance GNYVSTFFKCRILYRMNLMF returned an amyloid nucleation score of -0.121 ± 1.1.

Regarding SNEPIGTASLHDYVGPRVST, the amyloid nucleation score is -0.332 ± 0.44.

For the substance IYAGSSLTLWGDRDNKKCDR, the amyloid nucleation score is -1.44 ± 1.

NCASWLYGSCACVGLLDLFE showed an amyloid nucleation score of -0.626 ± 0.41.

With RCVYNTKVREMPVLVGLRQD, the amyloid nucleation score result is “inactive”.
